Patent WO2011147762A2

Assays:
[1] = target: ED-B fibronectin antigen protein (recombinant), bound to CNBr activated sepharose 4B (UniProt P02751); experiment: ED-B sepharose column, % of total radioactivity bound; Study A; inositol 50 mg/mL; day 1
[2] = target: ED-B fibronectin antigen protein (recombinant), bound to CNBr activated sepharose 4B (UniProt P02751); experiment: ED-B sepharose column, % of total radioactivity bound; Study A; methionine 10 mg/mL; day 1
[3] = target: ED-B fibronectin antigen protein (recombinant), bound to CNBr activated sepharose 4B (UniProt P02751); experiment: ED-B sepharose column, % of total radioactivity bound; Study A; no-excipient control (saline); day 7
[4] = target: ED-B fibronectin antigen protein (recombinant), bound to CNBr activated sepharose 4B (UniProt P02751); experiment: ED-B sepharose column, % of total radioactivity bound; Study A; maltose 25 mg/mL; day 5
[5] = target: ED-B fibronectin antigen protein (recombinant), bound to CNBr activated sepharose 4B (UniProt P02751); experiment: ED-B sepharose column, % of total radioactivity bound; Study A; sodium thiosulfate 50 mg/mL; day 1
[6] = target: ED-B fibronectin antigen protein (recombinant), bound to CNBr activated sepharose 4B (UniProt P02751); experiment: ED-B sepharose column, % of total radioactivity bound; Study A; inositol 25 mg/mL; day 7
[7] = target: ED-B fibronectin antigen protein (recombinant), bound to CNBr activated sepharose 4B (UniProt P02751); experiment: ED-B sepharose column, % of total radioactivity bound; Study A; inositol 25 mg/mL; day 1
[8] = target: ED-B fibronectin antigen protein (recombinant), bound to CNBr activated sepharose 4B (UniProt P02751); experiment: ED-B sepharose column, % of total radioactivity bound; Study B3; human serum albumin 10 mg/mL; day 1
[9] = target: ED-B fibronectin antigen protein (recombinant), bound to CNBr activated sepharose 4B (UniProt P02751); experiment: ED-B sepharose column, % of total radioactivity bound; Study A; sodium thiosulfate 10 mg/mL; day 0
[10] = target: ED-B fibronectin antigen protein (recombinant), bound to CNBr activated sepharose 4B (UniProt P02751); experiment: ED-B sepharose column, % of total radioactivity bound; Study A; sodium thiosulfate 5 mg/mL; day 5
[11] = target: ED-B fibronectin antigen protein (recombinant), bound to CNBr activated sepharose 4B (UniProt P02751); experiment: ED-B sepharose column, % of total radioactivity bound; Study A; methionine 10 mg/mL; day 5
[12] = target: ED-B fibronectin antigen protein (recombinant), bound to CNBr activated sepharose 4B (UniProt P02751); experiment: ED-B sepharose column, % of total radioactivity bound; Study B3; no-excipient control (PBS); day 7
[13] = target: ED-B fibronectin antigen protein (recombinant), bound to CNBr activated sepharose 4B (UniProt P02751); experiment: ED-B sepharose column, % of total radioactivity bound; Study A; maltose 10 mg/mL; day 7
[14] = target: ED-B fibronectin antigen protein (recombinant), bound to CNBr activated sepharose 4B (UniProt P02751); experiment: ED-B sepharose column, % of total radioactivity bound; Study B3; ascorbic acid 25 mg/mL; day 5
[15] = target: ED-B fibronectin antigen protein (recombinant), bound to CNBr activated sepharose 4B (UniProt P02751); experiment: ED-B sepharose column, % of total radioactivity bound; Study B3; thioglycerol 10 mg/mL; day 7
[16] = target: ED-B fibronectin antigen protein (recombinant), bound to CNBr activated sepharose 4B (UniProt P02751); experiment: ED-B sepharose column, % of total radioactivity bound; Study B3; no-excipient control (PBS); day 1
[17] = target: ED-B fibronectin antigen protein (recombinant), bound to CNBr activated sepharose 4B (UniProt P02751); experiment: ED-B sepharose column, % of total radioactivity bound; Study A; methionine 25 mg/mL; day 3
[18] = target: ED-B fibronectin antigen protein (recombinant), bound to CNBr activated sepharose 4B (UniProt P02751); experiment: ED-B sepharose column, % of total radioactivity bound; Study B3; thioglycerol 10 mg/mL; day 5
[19] = target: ED-B fibronectin antigen protein (recombinant), bound to CNBr activated sepharose 4B (UniProt P02751); experiment: ED-B sepharose column, % of total radioactivity bound; Study A; maltose 5 mg/mL; day 5
[20] = target: ED-B fibronectin antigen protein (recombinant), bound to CNBr activated sepharose 4B (UniProt P02751); experiment: ED-B sepharose column, % of total radioactivity bound; Study A; methionine 5 mg/mL; day 7
[21] = target: ED-B fibronectin antigen protein (recombinant), bound to CNBr activated sepharose 4B (UniProt P02751); experiment: ED-B sepharose column, % of total radioactivity bound; Study B3; no-excipient control (PBS); day 2
[22] = target: ED-B fibronectin antigen protein (recombinant), bound to CNBr activated sepharose 4B (UniProt P02751); experiment: ED-B sepharose column, % of total radioactivity bound; Study A; inositol 10 mg/mL; day 3
[23] = target: ED-B fibronectin antigen protein (recombinant), bound to CNBr activated sepharose 4B (UniProt P02751); experiment: ED-B sepharose column, % of total radioactivity bound; Study A; sodium thiosulfate 5 mg/mL; day 7
[24] = target: ED-B fibronectin antigen protein (recombinant), bound to CNBr activated sepharose 4B (UniProt P02751); experiment: ED-B sepharose column, % of total radioactivity bound; Study A; methionine 25 mg/mL; day 1
[25] = target: ED-B fibronectin antigen protein (recombinant), bound to CNBr activated sepharose 4B (UniProt P02751); experiment: ED-B sepharose column, % of total radioactivity bound; Study A; maltose 25 mg/mL; day 3
[26] = target: ED-B fibronectin antigen protein (recombinant), bound to CNBr activated sepharose 4B (UniProt P02751); experiment: ED-B sepharose column, % of total radioactivity bound; Study A; inositol 50 mg/mL; day 3
[27] = target: ED-B fibronectin antigen protein (recombinant), bound to CNBr activated sepharose 4B (UniProt P02751); experiment: ED-B sepharose column, % of total radioactivity bound; Study A; maltose 50 mg/mL; day 3
[28] = target: ED-B fibronectin antigen protein (recombinant), bound to CNBr activated sepharose 4B (UniProt P02751); experiment: ED-B sepharose column, % of total radioactivity bound; Study A; maltose 10 mg/mL; day 3

Sequence of 131I L19-SIP (radioiodinated L19 SIP homodimer) (chain): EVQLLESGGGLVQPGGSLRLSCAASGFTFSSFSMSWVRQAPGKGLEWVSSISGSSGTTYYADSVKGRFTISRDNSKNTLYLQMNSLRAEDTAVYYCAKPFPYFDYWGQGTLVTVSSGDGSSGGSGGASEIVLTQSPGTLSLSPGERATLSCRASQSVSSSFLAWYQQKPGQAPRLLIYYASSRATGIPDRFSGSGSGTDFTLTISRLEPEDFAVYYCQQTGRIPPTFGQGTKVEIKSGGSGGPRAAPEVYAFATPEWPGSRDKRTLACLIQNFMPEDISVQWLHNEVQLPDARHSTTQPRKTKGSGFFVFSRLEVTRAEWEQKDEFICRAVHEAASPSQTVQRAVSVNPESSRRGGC
Sequence of 131I L19-SIP (radioiodinated L19 SIP homodimer) (chain): as above
Sequence of UniProt P02751 (P02751 1266-1356 limits assumed): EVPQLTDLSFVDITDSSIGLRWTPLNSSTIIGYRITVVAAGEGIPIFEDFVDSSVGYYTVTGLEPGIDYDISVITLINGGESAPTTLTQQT

Q: With “131I L19-SIP (radioiodinated L19 SIP homodimer)” as the substance, how does the Immunoreactivity (%) [1] read?
A: 89.3%

Q: And the Immunoreactivity (%) [2]?
A: 88.1%

Q: And the Immunoreactivity (%) [3]?
A: 43.7%

Q: And the Immunoreactivity (%) [4]?
A: 57.7%

Q: And the Immunoreactivity (%) [5]?
A: 96.9%

Q: And the Immunoreactivity (%) [6]?
A: 62.8%

Q: And the Immunoreactivity (%) [7]?
A: 88.7%

Q: And the Immunoreactivity (IR) (%) [8]?
A: 78%

Q: And the Immunoreactivity (%) [9]?
A: 96.2%

Q: And the Immunoreactivity (%) [10]?
A: 79.4%

Q: And the Immunoreactivity (%) [11]?
A: 64.2%

Q: What about the Immunoreactivity (IR) (%) [12] of the same substance?
A: 28.2%

Q: What about the Immunoreactivity (%) [13] of the same substance?
A: 53.7%

Q: What about the Immunoreactivity (IR) (%) [14] of the same substance?
A: 64.7%

Q: And the Immunoreactivity (IR) (%) [15]?
A: 47.1%

Q: And the Immunoreactivity (IR) (%) [16]?
A: 73.2%

Q: What about the Immunoreactivity (%) [17] of the same substance?
A: 79.6%

Q: And the Immunoreactivity (IR) (%) [18]?
A: 46.8%

Q: What about the Immunoreactivity (%) [19] of the same substance?
A: 57%

Q: And the Immunoreactivity (%) [20]?
A: 61%

Q: And the Immunoreactivity (IR) (%) [21]?
A: 71.3%

Q: And the Immunoreactivity (%) [22]?
A: 70.4%

Q: And the Immunoreactivity (%) [23]?
A: 70%

Q: And the Immunoreactivity (%) [24]?
A: 89.6%

Q: And the Immunoreactivity (%) [25]?
A: 66%

Q: What about the Immunoreactivity (%) [26] of the same substance?
A: 71.6%

Q: What about the Immunoreactivity (%) [27] of the same substance?
A: 66.2%

Q: And the Immunoreactivity (%) [28]?
A: 65.2%
